Results published in US20240384250A1, “FIBROBLAST GROWTH FACTOR 23 MODULATING COMPOUNDS” (THE UAB RESEARCH FOUNDATION, priority 2021, published 2024).
Entries after “also recorded” stand apart in the source; their conditions may differ.

How the values were obtained:
Assay in all cases: Pull-down of FGF23 with Fc-FGFR on protein A/G beads with sKL, heparin or PBS
Conditions in all cases: with heparin, or alone
FGF23 binding to FGFR1c = target: T1, FGF23 binding to FGFR1c (Homo sapiens, UniProt P11362+Q9GZV9)
T1 construct: Fc-coupled FGFR ectodomains were immobilized on protein A/G beads; purchased R&D Systems 2604FG025/CF or 2629FG025/CF; 658FR050
T1 sequence (Q9GZV9 25-251): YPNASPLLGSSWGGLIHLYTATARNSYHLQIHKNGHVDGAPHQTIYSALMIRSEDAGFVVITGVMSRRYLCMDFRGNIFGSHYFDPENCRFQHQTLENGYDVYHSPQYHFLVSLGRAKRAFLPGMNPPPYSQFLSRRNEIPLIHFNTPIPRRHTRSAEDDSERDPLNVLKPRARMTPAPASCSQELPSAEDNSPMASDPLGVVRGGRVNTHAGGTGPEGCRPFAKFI
T1 sequence (P11362 22-376 limits assumed): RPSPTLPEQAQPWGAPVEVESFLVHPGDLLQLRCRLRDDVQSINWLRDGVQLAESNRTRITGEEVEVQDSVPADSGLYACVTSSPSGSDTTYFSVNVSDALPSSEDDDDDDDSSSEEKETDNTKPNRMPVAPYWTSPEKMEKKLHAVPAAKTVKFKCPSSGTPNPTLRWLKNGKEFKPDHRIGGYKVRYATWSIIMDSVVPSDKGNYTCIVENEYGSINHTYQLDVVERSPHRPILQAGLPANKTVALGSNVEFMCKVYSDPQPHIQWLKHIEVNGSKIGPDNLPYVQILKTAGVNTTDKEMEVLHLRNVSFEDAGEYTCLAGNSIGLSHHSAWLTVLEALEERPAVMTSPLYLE
Description: (§1) To study the interaction between Fc-tagged FGFR isoforms (Fc-FGFR), FGF isoforms, and sKL, immunoprecipitation studies were conducted. Protein A beads (6501, BioVision) and protein G beads (6511, BioVision) were used at 25 μl of a 50% stock slurry per sample in a total bead volume of 50 μl. Beads were washed 5× in activity buffer (50 mM Tris [pH 7.4], 200 mM NaCl, 0.01% Tween 20). Bead spin-down assays were all performed for 2 minutes at 5000 g. Beads were resuspended in 1 ml of activity buffer in a 1.5-ml snap cap tube. One microgram of Fc-FGFR1 to 4 was incubated with the beads for 1 hour on a bead rotator. Control samples were incubated with 2 μg of anti-FGF antibody instead of Fc-FGFR. Beads were then pelleted at 5000 g for 2 minutes and washed 5× with activity buffer. Beads were resuspended and incubated with different combinations of 500 ng of FGF, 1 μg of sKL, 1.6 United States Pharmacopeia (USP) units of heparin, or phosphate-buffered saline (PBS). Beads were incubated for 1 hour on a tube rotator, and beads were pelleted and washed as before. One hundred microliters of 1× Laemmli sample buffer (1610737, Bio-Rad) with 1.42 M 2-mercaptoethanol was added, and samples were boiled for 5 minutes. Samples were analyzed using SDS-PAGE and Western blotting.
(§2) The sample (20 μl) was loaded onto Mini-PROTEAN TGX Precast Gel 4-20% for experiments with <9 samples (4568094, Bio-Rad) or Criterion TGX Precast Gel 4-20% (5678094, Bio-Rad) for experiments with >9 samples. Gels were run in 1× Tris/Glycine/SDS buffer (1610732, Bio-Rad) at 150 V and stopped when the sample dye reached the end of the gel. Gels were removed and electrotransferred via a semi-dry cassette (1703940, Bio-Rad) in I× Tris/Glycine buffer (1610734, Bio-Rad) with 20% methanol. Gels were transferred onto polyvinylidene diflouride membranes (IPVH00010, Millipore) at 20 V for 1 hour. Membranes were then blocked in 5% dried milk with 0.5% Tween 20 diluted in Tris-buffered saline (TBST; pH 7.5) for 1 hour and probed with antibodies against specific antigens at 1:1000 in TBST with 5% dried milk. Blots were washed 3× for 5 minutes in TBST and probed with HRP-coupled secondary antibodies against specific species at 1:10,000 in TBST with 5% dried milk. Membranes were imaged on the SRX-101A X-ray film developer (Konica Minolta).

FGF23 binding to FGFR3c = target: T2, FGF23 binding to FGFR3c (Homo sapiens, UniProt P22607+Q9GZV9)
T2 construct: Fc-coupled FGFR ectodomains were immobilized on protein A/G beads; purchased R&D Systems 2604FG025/CF or 2629FG025/CF; 766FR050
T2 sequence (Q9GZV9 25-251): T1 sequence (Q9GZV9 25-251)
T2 sequence (P22607 23-375 limits assumed): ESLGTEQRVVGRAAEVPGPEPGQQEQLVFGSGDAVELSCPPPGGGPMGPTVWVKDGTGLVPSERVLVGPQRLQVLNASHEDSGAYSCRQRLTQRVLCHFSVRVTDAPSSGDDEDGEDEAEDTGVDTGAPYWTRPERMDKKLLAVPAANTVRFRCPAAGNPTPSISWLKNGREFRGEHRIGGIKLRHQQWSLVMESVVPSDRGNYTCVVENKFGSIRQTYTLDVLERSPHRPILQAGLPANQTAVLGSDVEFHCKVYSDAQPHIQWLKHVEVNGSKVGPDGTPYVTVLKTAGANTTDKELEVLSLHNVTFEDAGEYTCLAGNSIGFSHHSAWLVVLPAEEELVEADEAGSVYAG
Description: as §1, §2

FGF23 binding to FGFR4 = target: T3, FGF23 binding to FGFR4 (Homo sapiens, UniProt P22455+Q9GZV9)
T3 construct: Fc-coupled FGFR ectodomains were immobilized on protein A/G beads; purchased R&D Systems 2604FG025/CF or 2629FG025/CF; 685FR050
T3 sequence (Q9GZV9 25-251): T1 sequence (Q9GZV9 25-251)
T3 sequence (P22455 22-369 limits assumed): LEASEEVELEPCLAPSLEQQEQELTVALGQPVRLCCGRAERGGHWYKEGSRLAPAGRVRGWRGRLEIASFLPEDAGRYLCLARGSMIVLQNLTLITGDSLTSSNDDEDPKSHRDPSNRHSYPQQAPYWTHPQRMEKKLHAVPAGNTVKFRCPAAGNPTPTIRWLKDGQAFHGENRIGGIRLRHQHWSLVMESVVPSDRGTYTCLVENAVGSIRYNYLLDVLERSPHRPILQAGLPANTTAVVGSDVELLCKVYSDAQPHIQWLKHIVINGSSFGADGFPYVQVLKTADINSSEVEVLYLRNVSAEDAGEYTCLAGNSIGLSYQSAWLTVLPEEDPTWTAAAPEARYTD
Description: as §1, §2

B1: FGF23: recombinant fibroblast growth factor 23 protein from R&D Systems (protein)
chain: YPDTSPLLGSNWGSLTHLYTATARTSYHLQIHRDGHVDGTPHQTIYSALMITSEDAGSVVITGAMTRRFLCMDLHGNIFGSLHFSPENCKFRQWTLENGYDVYLSQKHHYLVSLGRAKRIFQPGTNPPPFSQFLARRNEVPLLHFYTVRPRRHTRSAEDPPERDPLNVLKPRPRATPVPVSCSRELPSAEEGGPAASDPLGVLRRGRGDARGGAGGADRCRPFPRFV
FGF23 co-precipitation with Fc-FGFR1c (FGF23 binding to FGFR1c): no FGF23 binding was detected
FGF23 co-precipitation with Fc-FGFR3c (FGF23 binding to FGFR3c): no FGF23 binding was detected
FGF23 co-precipitation with Fc-FGFR4 (FGF23 binding to FGFR4): no FGF23 binding was detected

B2: sKL: recombinant soluble α-klotho ectodomain, mouse aa 35-982 and human aa 34-981, FLAG- or Strep/His-tagged, purified from HEK293 cells (protein)
chain: EPGDGAQTWARFSRPPAPEAAGLFQGTFPDGFLWAVGSAAYQTEGGWQQHGKGASIWDTFTHHPLAPPGDSRNASLPLGAPSPLQPATGDVASDSYNNVFRDTEALRELGVTHYRFSISWARVLPNGSAGVPNREGLRYYRRLLERLRELGVQPVVTLYHWDLPQRLQDAYGGWANRALADHFRDYAELCFRHFGGQVKYWITIDNPYVVAWHGYATGRLAPGIRGSPRLGYLVAHNLLLAHAKVWHLYNTSFRPTQGGQVSIALSSHWINPRRMTDHSIKECQKSLDFVLGWFAKPVFIDGDYPESMKNNLSSILPDFTESEKKFIKGTADFFALCFGPTLSFQLLDPHMKFRQLESPNLRQLLSWIDLEFNHPQIFIVENGWFVSGTTKRDDAKYMYYLKKFIMETLKAIKLDGVDVIGYTAWSLMDGFEWHRGYSIRRGLFYVDFLSQDKMLLPKSSALFYQKLIEKNGFPPLPENQPLEGTFPCDFAWGVVDNYIQVDTTLSQFTDLNVYLWDVHHSKRLIKVDGVVTKKRKSYCVDFAAIQPQIALLQEMHVTHFRFSLDWALILPLGNQSQVNHTILQYYRCMASELVRVNITPVVALWQPMAPNQGLPRLLARQGAWENPYTALAFAEYARLCFQELGHHVKLWITMNEPYTRNMTYSAGHNLLKAHALAWHVYNEKFRHAQNGKISIALQADWIEPACPFSQKDKEVAERVLEFDIGWLAEPIFGSGDYPWVMRDWLNQRNNFLLPYFTEDEKKLIQGTFDFLALSHYTTILVDSEKEDPIKYNDYLEVQEMTDITWLNSPSQVAVVPWGLRKVLNWLKFKYGDLPMYIISNGIDDGLHAEDDQLRVYYMQNYINEALKAHILDGINLCGYFAYSFNDRTAPRFGLYRYAADQFEPKASMKHYRKIIDSNGFPGPETLERFCPEEFTVCTECSFFHTRKS
modifications: left off: small tags and cut ends
notes: recombinant soluble α-klotho ectodomain, mouse aa 35-982 and human aa 34-981, FLAG- or Strep/His-tagged, purified from HEK293 cells
FGF23 co-precipitation with Fc-FGFR1c (FGF23 binding to FGFR1c): could coprecipitate sKL and FGF23; also recorded: complex formation with FGFR1c
FGF23 co-precipitation with Fc-FGFR3c (FGF23 binding to FGFR3c): could coprecipitate sKL and FGF23
FGF23 co-precipitation with Fc-FGFR4 (FGF23 binding to FGFR4): could coprecipitate sKL and FGF23
